Measurements reported in doi:10.1101/677344.

What was measured:
[1] = molecular target: AausFP1 (Aequorea cf. australis); experiment: crystal structure
[2] = molecular target: AausFP2 (Aequorea cf. australis); experiment: crystal structure

stoichiometry N [1] | stoichiometry N [2] | Substance
2 | – | AausFP1 (natural protein)
– | 2 | AausFP2 (natural protein)
